Results taken from the supplement of paper PMC12042874.
± gives the uncertainty stated by the source.

Assay: amyloid nucleation score (Sup35N fusion, yeast selection) (log enrichment); library NNK2; higher = more nucleation; inactive = no reads after selection
Method in brief: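 Growth for 7 days at 30°C on medium lacking adenine and uracil followed a 24-hour induction with 100 μM copper sulfate of psi-negative yeast expressing peptides of 20 random codons fused to Sup35N. Input and output plasmid inserts were sequenced with Illumina, and sequences with under 100 input reads were excluded. Nucleation score is the DiMSum log enrichment of output over input reads, centred on the mode score of non-aggregating sequences.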

| Substance | amyloid nucleation score |
| --- | --- |
| FDSPYPMPMSHSVNSSLIIW | -0.155 ± 0.3 |
| YMYFRVFDS | 0.525 ± 0.34 |
| IYACGYGLFYEYHTCSMCEI | -0.977 ± 0.34 |
| YVVSQTVRWF | inactive |
| MVYRSDAGCSPVVTKK | 0.259 ± 0.5 |
| DVFWKPVYARYFFHRVCMRE | inactive |
| SIKVRMGEARVMNLVNTLGV | inactive |
| TQWSFGGYQRVGGLVVHAKR | 3.03 ± 0.17 |
| GSSVIFSALRMYVSLFLYLV | inactive |
| IYYGSRISPTWAGRLLCGER | -0.185 ± 0.44 |
| GFPRKSTDDLNILLNL | -1.47 ± 0.78 |
| HLPGWSGWRSDFDIHTSGVG | 1.92 ± 0.25 |
| NLGHTCVCFKRIRSYFFSYR | -0.94 ± 0.49 |
| RLILY | -0.775 ± 0.43 |
| TWNLMNKVYIVPGLDPDTRS | 7.225 ± 0.055 |
| CKFWYLARWWIFLWSPRYK | -0.153 ± 1.1 |
| YNGMAHGCHVGASSRRLE | 0.117 ± 0.32 |
| SDLSKKSLLKVLMAS | -0.375 ± 1.1 |
| SWMAQCLPRYTHIADQSDGS | 0.238 ± 0.17 |
| VTNCLTIWAFMGSRRCWKAP | 3.62 ± 0.11 |
| SGIADEMGSRLTRKLVNRFY | -0.466 ± 0.55 |
| GYMRSLGHYSADVMEYLYNW | 0.052 ± 0.45 |
| SSASTRDEKGGSGALERERC | -0.243 ± 1.1 |

| Substance | amyloid nucleation score |
| --- | --- |
| VIGTTGMYLCVVLETIHNWC | 1.07 ± 0.26 |
| RLRFPSPFRTVNWSFIRFAR | 5.03 ± 0.069 |
| PSGGFTTSMVTDDIDVSARH | 0.708 ± 0.53 |
| SRNFVPVHRCVGGF | inactive |
| YYIMCFSSGCDPLPQHCGWE | -0.821 ± 1.1 |
| KRVFMWRSG | -0.424 ± 1.1 |
| SNCRLGKGYYNCF | -0.833 ± 0.41 |
| LFRYQRPLYGVRRTSTKVMA | 0.226 ± 0.37 |
| SVYPTSGRYYLYRSLIFVGD | -0.57 ± 0.78 |
| GLVRERIDTAHPRSTSYC | 0.561 ± 0.62 |
| FVVQFMGADHAFKERFGGH | 1.87 ± 0.2 |
| NFNHVSEI | inactive |
| SQVERVQFTGIRKWYGAGRS | 4.57 ± 0.072 |
| YRRQPS | 0.174 ± 0.56 |
| WLTYRCSVYYFYVEYWKSVY | 0.256 ± 0.74 |
| GYTTMRKCFAQVEFRTPADT | inactive |
| VLLLAQHVLSGSNFTMG | 3.44 ± 0.045 |
| KALFLYYSSVRITHNKLHAR | inactive |
| WGETVLYSDY | -1.01 ± 1 |
| AGSGFRSATWYRASTWMAFG | 2.93 ± 0.13 |
| ARLKLDRRPMKSSMVCIHSA | 6.16 ± 0.089 |
| HTTLHSSAIQVWSWRLLYFV | 5.061 ± 0.049 |
| LYWKSGEHIWYLGSILGCVG | 0.593 ± 0.56 |

| Substance | amyloid nucleation score |
| --- | --- |
| TCLAESGVAMSVS | 0.151 ± 0.29 |
| LIQVGQSST | 0.046 ± 0.49 |
| AALGTDMSNWVHSRLNQERR | 0.433 ± 0.45 |
| HSCVYYTVYLRLFSMKGSEN | 5.361 ± 0.038 |
| NLHLGMEFTCELRCYWIRLP | 0.279 ± 0.5 |
| EICRY | inactive |
| NWLQDK | 1.61 ± 0.55 |
| ILDRYLVHGI | -0.394 ± 0.78 |
| GCIIFGYLG | 1.57 ± 0.16 |
| KIRSLCPRRKVILSASGQQL | 0.971 ± 0.17 |
| IVFYVEVVLMAECLADVKRV | 5.56 ± 0.081 |
| ERNYVT | -0.525 ± 1.1 |
| CGRRILSRWVITLLVPGGSF | inactive |
| ISGWYVVSSVS | 0.912 ± 0.22 |
| ERILSFFF | inactive |
| WVFKCVSNKERNYISCACSM | 4.79 ± 0.063 |
| LGYIRCLHSVSYLLFMYMLF | inactive |
| YCVTTVGARCLVKFHHLDSG | 2.11 ± 0.15 |
| LLLNLRQGMTKIPIGFILLI | -0.64 ± 0.36 |
| WFISGISKLMRHFALKYASM | 2.5 ± 0.15 |
| KIHQRRVTSTANRCTILAAN | -0.572 ± 0.76 |
| RIITGPGWTVAGSPVRGVRG | 1.68 ± 0.19 |
| FEIDCIKIVCKASYHGLSGT | 2.99 ± 0.1 |
